Source: article PMC8647080, “Evolution of CPEB4 Dynamics Across its Liquid–Liquid Phase Separation Transition” (The Journal of Physical Chemistry. B, 2021)

Molecular target: the molecule itself
Test: CW-EPR line shape of the spin label; X band, 2-45 °C, 10-112 μM, 100 mM NaCl, pH 8; spectra simulated with three components (I monomer, II and III in assemblies)

B1: spin labeled CPEB4NTD-C441S/G320C (domain or fragment, human, UniProt Q17RY0-2 1-448, looked up)
chain: MGDYGFGVLVQSNTGNKSAFPVRFHPHLQPPHHHQNATPSPAAFINNNTAANGSSAGSAWLFPAPATHNIQDEILGSEKAKSQQQEQQDPLEKQQLSPSPGQEAGILPETEKAKSEENQGDNSSENGNGKEKIRIESPVLTGFDYQEATGLGTSTQPLTSSASSLTGFSNWSAAIAPSSSTIINEDASFFHQGGVPAASANNGALLFQNFPHHVSPGFGGSFSPQIGPLSQHHPHHPHFQHHHSQHQQQRRSPASPHPPPFTHRNAAFNQLPHLANNLNKPPSPWSSYQSPSPTPSSSWSPGGGGYGGWGGSQGRDHRRCLNGGITPLNSISPLKKNFASNHIQLQKYARPSSAFAPKSWMEDSLNRADNIFPFPDRPRTFDMHSLESSLIDIMRAENDTIKARTYGRRRGQSSLFPMEDGFLDDGRGDQPLHSGLGSPHSFSHQNGE
modifications: nitroxide spin label on the introduced cysteine 320 (marked * in the paper)
notes: also called C441S/G320C CPEB4NTD mutant; source: E. coli BL21(DE3), purified using the same protocol (Ni2+-NTA, Superdex-200)
binding result: binds
